From US20240115742A1, “FLUORINATED FIBERS FOR MULTIMODAL 1H AND 19F MRI, ULTRASOUND, FLUORESCENCE DETECTION AND CONFORMATIONAL AND TEMPERATURE DETECTION BY 19F MRS” (New York University, priority 2022, published 2024)
Values joined by “and” are separate entries in the source; they are usually repeats but may differ in a detail not shown here. Identical values can stand only once. Square brackets hold non-standard residues; d marks the D form. Ends that are not written are not given here. LTF = trifluoroleucine

Columns and labels:
Type in all cases: physicochemical
[1] = ATR-FTIR peak deconvolution of secondary structure
Protocol: Attenuated Total Reflectance-Fourier Transform Infrared Spectroscopy. Secondary structure of protein fiber variants was confirmed using attenuated total reflectance-Fourier transform infrared (ATR-FTIR) spectroscopy using the Nicolet 6700 Fourier Transform Infrared Spectrometer equipped with a diamond ATR accessory and a mercury cadmium telluride (MCT)-A detector. Spectra were collected for 5 μL of 500 μM protein from 4000-400 cm^−1 with 0.5 cm^−1 increments at room temperature (RT). For CCM bound protein, protein was bound at a final concentration of 500 μM and saturated with CCM as determined by fluorescent spectroscopic drug binding with a final 1% v/v DMSO. Sample spectra were normalized using buffer background and analyzed from 1700-1600 cm^−1 corresponding to the amide I region. Peaks were deconvoluted using Gaussian functions in PeakFit software until the goodness of fit reached r^2≥0.99. Peaks were associated with secondary structure were determined by methods known in the art.
(§1) Attenuated Total Reflectance-Fourier Transform Infrared Spectroscopy. Secondary structure of Q2 protein was confirmed using attenuated total reflectance-Fourier transform infrared (ATR-FTIR) spectroscopy using the Nicolet 6700 Fourier Transform Infrared Spectrometer equipped with a diamond ATR accessory and a mercury cadmium telluride (MCT)-A detector. Spectra were collected for 5 μL of 2 mM protein from 4000-400 cm^−1 with 0.5 cm^−1 increments. Sample spectra were normalized using buffer background and analyzed from 1700-1600 cm^−1 corresponding to the amide I region. Peaks were deconvoluted using Gaussian functions in PeakFit software until the goodness of fit reached r^2>0.99.
as §1, with “of Q2LTF and QLTF” for “of Q2”, “using a” for “using the”, “of 1” for “of 2”, “with 4.0” for “with 0.5”, “reached r^2≥0.99.” for “reached r^2>0.99.”
Attenuated Total Reflectance-Fourier Transform Infrared Spectroscopy. Secondary structure before (solution) and after gelation (gel) was also assessed by peak deconvolution of attenuated total reflectance-Fourier transform infrared (ATR-FTIR) spectra. ATR-FTIR measurements were performed using a Nicolet 6700 Fourier Transform Infrared Spectrometer equipped with a mercury cadmium telluride (MCT)-A detector. Spectra were collected for 5 μL samples of protein at 2 mM from 4000-400 cm^−1 with a 4.0 cm^−1 resolution, normalized, and buffer-subtracted prior to analysis from 1700-1600 cm^−1, corresponding to the amide I region. ATR-FTIR measurements were performed immediately after concentration to 2 mM for solution measurements and after. Peaks were deconvoluted using Gaussian functions in PeakFit software until the goodness of fit reached r^2≥0.99.

TEM of protein fibers = conditions: for average protein fiber diameter (TEM): fibers, 50 mM NaH2PO4 pH 4.0
Protocol: (§2) Transmission Electron Microscopy. Transmission electron microscopy (TEM) images were taken with a FEI Talos L120C transmission electron microscope. Protein fiber samples were diluted to 50 μM and 3 μL was spotted on Formvar/carbon-coated copper grids followed by 5 μL wash with water, and 3 μL staining with 1% v/v uranyl acetate solution each with incubation times of 1 min at RT. Fibrils were sized in ImageJ software (Version 1.52q).
as §2, with “Samples” for “Protein fiber samples”, “by a” for “by”, “min. Between steps, filter paper was used to wick the grids. Following imaging, fibrils” for “min at RT. Fibrils”

[2] = Confocal microscopy of CCM-bound fibers; conditions: for fiber diameter after CCM binding (confocal): 50 μM protein saturated with CCM, pH 4.0
Protocol: Confocal Microscopy. Protein bound to CCM was studied by measuring 50 μM protein samples saturated with CCM as determined by fluorescent spectroscopic drug binding with a final 1% v/v DMSO (or 2×Kd). 10 μL of protein was added to a micro slide and a 22×22 mm #1 microscope cover glass. Slides were inverted and imaged using a Leica TCS SP8 X Laser Confocal Microscope using a dry 10× objective at RT. CCM was excited using a 460 nm line of the laser, and images were taken using a 470 to 550 nm detection window.
Confocal Microscopy. Q2LTF was diluted to 50 μM and saturated with 40 μM of curcumin (solubilized in DMSO) as determined by the binding affinity in drug-binding experiments. […] 5 μL of sample was deposited onto a microslide and covered with a 22×22 mm #1 microscope cover glass. Images were taken with a Leica TCS SP8 X laser confocal microscope using a dry 10× objective at RT. Samples were excited at 460 nm and images were taken with a 470-550 nm detection window.

Parallel plate rheology = conditions: 10 Hz, 5% strain
Protocol: Rheology. Mechanical integrity of the Q2 hydrogel was assessed using a stress-controlled rheometer (Discovery Hybrid Rheometer 2, TA Instruments) equipped with a parallel plate geometry. After complete gelation of a 2 mM sample at 4° C., the sample was loaded onto the 8 mm diameter lower and upper plates with a 0.2 mm geometry gap. Strain and frequency settings were informed from previous Q hydrogel studies where the storage modulus (G′) and loss modulus (G″) were measured over the frequency range 0.1-10 Hz with a 5% oscillation strain.
Rheology. Q hydrogel variants were assessed for relative mechanical integrity with a stress-controlled rheometer (Discovery Hybrid Rheometer 2, TA Instruments) equipped with a parallel plate geometry. In parallel with microrheology measurements, 100 μL of each variant was incubated at 4° C. Upon gelation as assessed by microrheology, hydrogels were loaded onto an 8 mm diameter lower and upper plate with a 0.2 mm geometry gap. Storage modulus (G′) and loss modulus (G″) were measured from 0.1-10 Hz with 5% oscillation strain.

| Substance | aggregated strands ([1]; Gel, 2 mM) [% composition] | aggregated strands ([1]; Solution, 2 mM) [% composition] | aggregated strands ([1]; native) [%] | antiparallel β-sheet/aggregated strands ([1]; native) [%] | change in α-helical content upon gelation ([1]; solution to gel) | aggregated strands ([1]; w/CCM) [%] | antiparallel β-sheet/aggregated strands ([1]; w/CCM) [%] | average protein fiber diameter (TEM) (TEM of protein fibers) [nm] | fiber diameter after CCM binding (confocal) [2] [μm] | storage modulus G′ (Parallel plate rheology) | α-helical content [1] [%] | aggregated strands ([1]; fluorinated constructs, Tris buffer) [% composition] | fiber assembly size by TEM (TEM of protein fibers; 2 mM, 50 mM Tris, 500 mM NaCl, pH 8.0, 4 °C, n=20) [nm] | diameter of large fiber aggregates (TEM of protein fibers; as E88) [nm] | median fiber diameter (TEM of protein fibers; as E88) [nm] | striation (protofibril) size by TEM (TEM of protein fibers; n=20) [nm] | average fiber diameter after CCM binding (confocal) ([2]; 50 μM Q2LTF, 40 μM curcumin) [μm] | loss modulus G″ (Parallel plate rheology) |
| --- | --- | --- | --- | --- | --- | --- | --- | --- | --- | --- | --- | --- | --- | --- | --- | --- | --- | --- |
| Q2: coiled-coil protein redesigned from Q for reduced lateral assembly, SEQ ID NO: 11 (MRGSHHHHHHGSIEGRVKELLFLKKTAEQMLEELKETNKALHDVRHLLENQSKL) [Protein Q2] | 2.3 | 2.1 | 3.9 | 20.6 | +12.8% | 10.6 | 0.0 | 91±37 | 7.17±2.19 | 289.6±86.9 Pa | – | – | – | – | – | – | – | – |
| Q2LTF: protein-engineered fluorinated coiled-coil fiber, Q2 with trifluoroleucine, SEQ ID NO: 20 (MRGSHHHHHHGSIEGRVKE[LTF][LTF]F[LTF]KKTAEQM[LTF]EE[LTF]KETNKA[LTF]HDVRH[LTF][LTF]ENQSK[LTF]; ends and bridges not checked) [Protein Q2LTF] | – | – | – | – | – | – | – | – | – | – | 42.4±8.6 | 6.8 | 215.8±38.6 | ≤ 840 | 181.7 | 3.6±0.8 | 10.8±5.4 | – |
| Q3: Q variant with V44I pore mutation, SEQ ID NO: 12 (MRGSHHHHHHGSIEGRVKEILFLKNTAYQMLLELKETNEALYDIRHLLQQQSKL) [Protein Q3] | – | – | 5.2 | 6.8 | – | 17.8 | 7.6 | 130±27 | 8.04±1.78 | 83±35 Pa and 82.5 ± 35.4 Pa | – | – | – | – | – | – | – | 12±2 Pa and 12.3 ± 1.7 Pa |
| Q5: Q hydrogel variant from Rosetta Monte Carlo search, SEQ ID NO: 14 (MRGSHHHHHHGSIEGRVKEITFIKKTIEQIAEEMKEINKAIHDIRHALENISKK) [Protein Q5] | – | – | – | – | – | – | – | – | – | 229±52 Pa and 228.7 ± 52.2 Pa | – | – | – | – | – | – | – | 12±6 Pa and 11.8 ± 6.1 Pa |
| Q: rationally designed pentameric coiled-coil derived from C, SEQ ID NO: 23 (MRGSHHHHHHGSIEGRVKEITFLKNTAPQMLRELQETNAALQDVRELLRQQSKL) [reference compound] | – | – | 6.0 | 13.0 | – | 15.4 ± 3.8 | 7.8 | 208±82 | 14.74±5.501 | – | – | – | – | – | – | – | – | – |
